# Molecular target: C3 convertase complex (UniProt P01024 23-1663; P00751 260-764)
# Experiment: cell-based or functional assay
# Wherever C3 convertase activity % of the control is given: test concentration or dose not given here.
# Chain of C3 convertase complex (P01024 23-1663, chain 1 of 2): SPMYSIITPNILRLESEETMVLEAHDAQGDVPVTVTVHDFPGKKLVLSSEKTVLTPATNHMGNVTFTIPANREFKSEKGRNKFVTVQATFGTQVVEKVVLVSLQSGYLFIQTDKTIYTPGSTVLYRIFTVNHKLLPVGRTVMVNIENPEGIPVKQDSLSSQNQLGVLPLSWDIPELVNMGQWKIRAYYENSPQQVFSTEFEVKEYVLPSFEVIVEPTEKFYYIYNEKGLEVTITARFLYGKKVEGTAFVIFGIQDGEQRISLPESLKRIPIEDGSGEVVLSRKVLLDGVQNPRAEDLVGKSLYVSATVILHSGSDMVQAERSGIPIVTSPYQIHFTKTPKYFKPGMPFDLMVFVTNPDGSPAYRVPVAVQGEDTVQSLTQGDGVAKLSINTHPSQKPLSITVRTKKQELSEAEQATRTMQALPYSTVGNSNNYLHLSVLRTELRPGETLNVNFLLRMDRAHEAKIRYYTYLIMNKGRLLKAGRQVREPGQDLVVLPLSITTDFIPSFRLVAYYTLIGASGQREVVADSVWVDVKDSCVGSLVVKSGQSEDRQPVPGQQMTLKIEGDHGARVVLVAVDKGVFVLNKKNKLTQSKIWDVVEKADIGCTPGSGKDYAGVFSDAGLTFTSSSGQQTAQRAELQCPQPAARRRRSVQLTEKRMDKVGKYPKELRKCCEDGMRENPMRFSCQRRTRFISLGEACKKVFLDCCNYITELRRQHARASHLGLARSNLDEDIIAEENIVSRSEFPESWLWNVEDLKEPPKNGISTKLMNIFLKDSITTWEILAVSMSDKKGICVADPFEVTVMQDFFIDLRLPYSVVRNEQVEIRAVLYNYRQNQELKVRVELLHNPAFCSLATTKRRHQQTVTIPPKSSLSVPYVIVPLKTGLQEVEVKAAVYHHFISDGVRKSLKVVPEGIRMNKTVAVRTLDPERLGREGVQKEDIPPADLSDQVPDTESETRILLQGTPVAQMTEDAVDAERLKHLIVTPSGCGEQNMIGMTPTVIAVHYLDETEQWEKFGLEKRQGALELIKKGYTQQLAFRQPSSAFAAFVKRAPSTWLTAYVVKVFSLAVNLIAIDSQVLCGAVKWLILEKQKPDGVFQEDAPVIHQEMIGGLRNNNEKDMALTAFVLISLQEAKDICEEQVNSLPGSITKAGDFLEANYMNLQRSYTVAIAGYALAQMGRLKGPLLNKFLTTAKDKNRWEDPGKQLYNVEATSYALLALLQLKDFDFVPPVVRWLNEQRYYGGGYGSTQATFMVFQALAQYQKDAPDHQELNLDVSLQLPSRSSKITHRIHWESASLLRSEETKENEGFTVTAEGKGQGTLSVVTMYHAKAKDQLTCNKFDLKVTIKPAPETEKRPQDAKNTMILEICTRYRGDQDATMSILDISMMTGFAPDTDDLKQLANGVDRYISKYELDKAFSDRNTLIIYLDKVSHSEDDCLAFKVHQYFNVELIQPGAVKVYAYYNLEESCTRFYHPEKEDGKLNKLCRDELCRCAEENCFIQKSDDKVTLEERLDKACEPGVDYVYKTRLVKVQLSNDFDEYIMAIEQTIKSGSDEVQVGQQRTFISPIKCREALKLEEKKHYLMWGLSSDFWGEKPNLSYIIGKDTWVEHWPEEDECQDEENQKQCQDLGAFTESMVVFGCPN
# Chain of C3 convertase complex (P00751 260-764, chain 2 of 2): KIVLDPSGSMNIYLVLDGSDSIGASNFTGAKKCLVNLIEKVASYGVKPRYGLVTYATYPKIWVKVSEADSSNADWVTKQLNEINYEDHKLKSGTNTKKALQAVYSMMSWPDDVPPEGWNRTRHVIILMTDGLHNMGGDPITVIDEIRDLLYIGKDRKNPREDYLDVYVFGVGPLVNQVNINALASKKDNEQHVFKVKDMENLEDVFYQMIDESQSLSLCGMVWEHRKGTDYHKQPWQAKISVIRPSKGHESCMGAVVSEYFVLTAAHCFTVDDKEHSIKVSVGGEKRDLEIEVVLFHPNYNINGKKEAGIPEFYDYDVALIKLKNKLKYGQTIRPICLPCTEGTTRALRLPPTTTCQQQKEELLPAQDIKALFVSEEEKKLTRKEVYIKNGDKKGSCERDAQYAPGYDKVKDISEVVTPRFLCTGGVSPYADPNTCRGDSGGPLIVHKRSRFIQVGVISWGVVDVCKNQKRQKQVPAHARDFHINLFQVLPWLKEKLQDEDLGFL
Binder,C3 convertase activity % of the control,C3 convertase activity IC50
pCEP4-1NT7-9CT20 (other) EDCNELPPRRNTEILTGSWSDQTYPEGTQAIYKCRPGYRSLGNVIMVCRKGEWVALNPLRKCQKRPCGHPGDTPFGTFTLTGGNVFEYGVKAVYTCNEGYQLLGEINYRECDTDGWTNDIPICEVVKCLPVTAPENGKIVSSAMEPDREYHFGQAVRFVCNSGYKIEGDEEMHCSDDGFWSKEKPKCVEISCKSPDVINGSPISQKIIYKENERFQYKCNMGYEYSERGDAVCTESGWRPLPSCEEKSCDNPYIPNGDYSPLRIKHRTGDEITYQCRNGFYPATRGNTAKCTSTGWIPAPRCTLKPCDYPDIKHGGLYHENMRRPYFPVAVGKYYSYYCDEHFETPSGSYWDHIHCTQDGWSPAVPCLRKCYFPYLENGYNQNYGRKFVQGKSIDVACHPGYALPKAQTTVTCMENGWSPTPRCIRVKTGASGCDIPVFMNARTKNDFTWFKLNDTLDYECHDGYESNTGSTTGSIVCGYNGWSDLPICYERECELPKIDVHLVPDRKKDQYKVGEVLKFSCKPGFTIVGPNSVQCYHFGLSPDLPICKEQVQSCGPPPELLNGNVKEKTKEEYGHSEVVEYYCNPRFLMKGPNKIQCVDGEWTTLPVCIVEESTCGDIPELEHGWAQLSSPPYYYGDSVEFNCSESFTMIGHRSITCIHGVWTQLPQCVAIDKLKKCKSSNLIILEEHLKNKKEFDHNSNIRYRCRGKEGWIHTVCINGRWDPEVNCSMAQIQLCPPPPQIPNSHNMTTTLNYRDGEKVSVLCQENYLIQEGEEITCKDGRWQSIPLCVEKIPCSQPPQIEHGTINSSRSSQESYAHGTKLSYTCEGGFRISEENETTCYMGKWSSPPQCEGLPCKSPPEISHGVVAHMSDSYQYGEEVTYKCFEGFGIDGPAIAKCLGEKWSHPPSCIKTDCLSLPSFENAIPMGEKKDVYKAGEQVTYTCATYYKMDGASNVTCINSRWTGRPTCRDTSCVNPPTVQNAYIVSRQMSKYPSGERVRYQCRSPYEMFGDEEVMCLNGNWTEPPQCKDSTGKCGPPPPIDNGDITSFPLSVYAPASSVEYQCQNLYQLEGNKRITCRNGQWSEPPKCLHPCVISREIMENYNIALRWTAKQKLYSRTGESVEFVCKRGYRLSSRSHTLRTTCWDGKLEYPTCAKRGGSGHHHHHH,156 % of the control,0.252 µg/mL
pCEP4-1NT7-15CT20 (other) EDCNELPPRRNTEILTGSWSDQTYPEGTQAIYKCRPGYRSLGNVIMVCRKGEWVALNPLRKCQKRPCGHPGDTPFGTFTLTGGNVFEYGVKAVYTCNEGYQLLGEINYRECDTDGWTNDIPICEVVKCLPVTAPENGKIVSSAMEPDREYHFGQAVRFVCNSGYKIEGDEEMHCSDDGFWSKEKPKCVEISCKSPDVINGSPISQKIIYKENERFQYKCNMGYEYSERGDAVCTESGWRPLPSCEEKSCDNPYIPNGDYSPLRIKHRTGDEITYQCRNGFYPATRGNTAKCTSTGWIPAPRCTLKPCDYPDIKHGGLYHENMRRPYFPVAVGKYYSYYCDEHFETPSGSYWDHIHCTQDGWSPAVPCLRKCYFPYLENGYNQNYGRKFVQGKSIDVACHPGYALPKAQTTVTCMENGWSPTPRCIRVKTGASGCSQPPQIEHGTINSSRSSQESYAHGTKLSYTCEGGFRISEENETTCYMGKWSSPPQCEGLPCKSPPEISHGVVAHMSDSYQYGEEVTYKCFEGFGIDGPAIAKCLGEKWSHPPSCIKTDCLSLPSFENAIPMGEKKDVYKAGEQVTYTCATYYKMDGASNVTCINSRWTGRPTCRDTSCVNPPTVQNAYIVSRQMSKYPSGERVRYQCRSPYEMFGDEEVMCLNGNWTEPPQCKDSTGKCGPPPPIDNGDITSFPLSVYAPASSVEYQCQNLYQLEGNKRITCRNGQWSEPPKCLHPCVISREIMENYNIALRWTAKQKLYSRTGESVEFVCKRGYRLSSRSHTLRTTCWDGKLEYPTCAKRGGSGHHHHHH,56 % of the control,0.639 µg/mL
pCEP4-1NT4-15CT20 (other) EDCNELPPRRNTEILTGSWSDQTYPEGTQAIYKCRPGYRSLGNVIMVCRKGEWVALNPLRKCQKRPCGHPGDTPFGTFTLTGGNVFEYGVKAVYTCNEGYQLLGEINYRECDTDGWTNDIPICEVVKCLPVTAPENGKIVSSAMEPDREYHFGQAVRFVCNSGYKIEGDEEMHCSDDGFWSKEKPKCVEISCKSPDVINGSPISQKIIYKENERFQYKCNMGYEYSERGDAVCTESGWRPLPSCEEKSGASGCSQPPQIEHGTINSSRSSQESYAHGTKLSYTCEGGFRISEENETTCYMGKWSSPPQCEGLPCKSPPEISHGVVAHMSDSYQYGEEVTYKCFEGFGIDGPAIAKCLGEKWSHPPSCIKTDCLSLPSFENAIPMGEKKDVYKAGEQVTYTCATYYKMDGASNVTCINSRWTGRPTCRDTSCVNPPTVQNAYIVSRQMSKYPSGERVRYQCRSPYEMFGDEEVMCLNGNWTEPPQCKDSTGKCGPPPPIDNGDITSFPLSVYAPASSVEYQCQNLYQLEGNKRITCRNGQWSEPPKCLHPCVISREIMENYNIALRWTAKQKLYSRTGESVEFVCKRGYRLSSRSHTLRTTCWDGKLEYPTCAKRGGSGHHHHHH,58 % of the control,0.206 µg/mL

# Now from value to binder:
C3 convertase activity % of the control,C3 convertase activity IC50,Binder
49 % of the control,0.217 µg/mL,pCEP4-1NT9-19CT20 (other) EDCNELPPRRNTEILTGSWSDQTYPEGTQAIYKCRPGYRSLGNVIMVCRKGEWVALNPLRKCQKRPCGHPGDTPFGTFTLTGGNVFEYGVKAVYTCNEGYQLLGEINYRECDTDGWTNDIPICEVVKCLPVTAPENGKIVSSAMEPDREYHFGQAVRFVCNSGYKIEGDEEMHCSDDGFWSKEKPKCVEISCKSPDVINGSPISQKIIYKENERFQYKCNMGYEYSERGDAVCTESGWRPLPSCEEKSCDNPYIPNGDYSPLRIKHRTGDEITYQCRNGFYPATRGNTAKCTSTGWIPAPRCTLKPCDYPDIKHGGLYHENMRRPYFPVAVGKYYSYYCDEHFETPSGSYWDHIHCTQDGWSPAVPCLRKCYFPYLENGYNQNYGRKFVQGKSIDVACHPGYALPKAQTTVTCMENGWSPTPRCIRVKTCSKSSIDIENGFISESQYTYALKEKAKYQCKLGYVTADGETSGSITCGKDGWSAQPTCIKSCDIPVFMNARTKNDFTWFKLNDTLDYECHDGYESNTGSTTGSIVCGYNGWSDLPICYEREGASGCGPPPPIDNGDITSFPLSVYAPASSVEYQCQNLYQLEGNKRITCRNGQWSEPPKCLHPCVISREIMENYNIALRWTAKQKLYSRTGESVEFVCKRGYRLSSRSHTLRTTCWDGKLEYPTCAKRGGSGHHHHHH
58 % of the control,0.628 µg/mL,pCEP4-1NT8-15CT20 (other) EDCNELPPRRNTEILTGSWSDQTYPEGTQAIYKCRPGYRSLGNVIMVCRKGEWVALNPLRKCQKRPCGHPGDTPFGTFTLTGGNVFEYGVKAVYTCNEGYQLLGEINYRECDTDGWTNDIPICEVVKCLPVTAPENGKIVSSAMEPDREYHFGQAVRFVCNSGYKIEGDEEMHCSDDGFWSKEKPKCVEISCKSPDVINGSPISQKIIYKENERFQYKCNMGYEYSERGDAVCTESGWRPLPSCEEKSCDNPYIPNGDYSPLRIKHRTGDEITYQCRNGFYPATRGNTAKCTSTGWIPAPRCTLKPCDYPDIKHGGLYHENMRRPYFPVAVGKYYSYYCDEHFETPSGSYWDHIHCTQDGWSPAVPCLRKCYFPYLENGYNQNYGRKFVQGKSIDVACHPGYALPKAQTTVTCMENGWSPTPRCIRVKTCSKSSIDIENGFISESQYTYALKEKAKYQCKLGYVTADGETSGSITCGKDGWSAQPTCIKSGASGCSQPPQIEHGTINSSRSSQESYAHGTKLSYTCEGGFRISEENETTCYMGKWSSPPQCEGLPCKSPPEISHGVVAHMSDSYQYGEEVTYKCFEGFGIDGPAIAKCLGEKWSHPPSCIKTDCLSLPSFENAIPMGEKKDVYKAGEQVTYTCATYYKMDGASNVTCINSRWTGRPTCRDTSCVNPPTVQNAYIVSRQMSKYPSGERVRYQCRSPYEMFGDEEVMCLNGNWTEPPQCKDSTGKCGPPPPIDNGDITSFPLSVYAPASSVEYQCQNLYQLEGNKRITCRNGQWSEPPKCLHPCVISREIMENYNIALRWTAKQKLYSRTGESVEFVCKRGYRLSSRSHTLRTTCWDGKLEYPTCAKRGGSGHHHHHH
56 % of the control,0.166 µg/mL,pCEP4-1NT9-13CT20 (other) EDCNELPPRRNTEILTGSWSDQTYPEGTQAIYKCRPGYRSLGNVIMVCRKGEWVALNPLRKCQKRPCGHPGDTPFGTFTLTGGNVFEYGVKAVYTCNEGYQLLGEINYRECDTDGWTNDIPICEVVKCLPVTAPENGKIVSSAMEPDREYHFGQAVRFVCNSGYKIEGDEEMHCSDDGFWSKEKPKCVEISCKSPDVINGSPISQKIIYKENERFQYKCNMGYEYSERGDAVCTESGWRPLPSCEEKSCDNPYIPNGDYSPLRIKHRTGDEITYQCRNGFYPATRGNTAKCTSTGWIPAPRCTLKPCDYPDIKHGGLYHENMRRPYFPVAVGKYYSYYCDEHFETPSGSYWDHIHCTQDGWSPAVPCLRKCYFPYLENGYNQNYGRKFVQGKSIDVACHPGYALPKAQTTVTCMENGWSPTPRCIRVKTCSKSSIDIENGFISESQYTYALKEKAKYQCKLGYVTADGETSGSITCGKDGWSAQPTCIKSCDIPVFMNARTKNDFTWFKLNDTLDYECHDGYESNTGSTTGSIVCGYNGWSDLPICYEREGASGCKSSNLIILEEHLKNKKEFDHNSNIRYRCRGKEGWIHTVCINGRWDPEVNCSMAQIQLCPPPPQIPNSHNMTTTLNYRDGEKVSVLCQENYLIQEGEEITCKDGRWQSIPLCVEKIPCSQPPQIEHGTINSSRSSQESYAHGTKLSYTCEGGFRISEENETTCYMGKWSSPPQCEGLPCKSPPEISHGVVAHMSDSYQYGEEVTYKCFEGFGIDGPAIAKCLGEKWSHPPSCIKTDCLSLPSFENAIPMGEKKDVYKAGEQVTYTCATYYKMDGASNVTCINSRWTGRPTCRDTSCVNPPTVQNAYIVSRQMSKYPSGERVRYQCRSPYEMFGDEEVMCLNGNWTEPPQCKDSTGKCGPPPPIDNGDITSFPLSVYAPASSVEYQCQNLYQLEGNKRITCRNGQWSEPPKCLHPCVISREIMENYNIALRWTAKQKLYSRTGESVEFVCKRGYRLSSRSHTLRTTCWDGKLEYPTCAKRGGSGHHHHHH

# From patent US20170190753A1 (LABORATOIRE FRANCAIS DU FRACTIONNEMENT ET DES …, published 2017)
